This note sets out measurements from the supplement of paper PMC7877785.

The nature of the data set: self-splicing fitness, log relative to wild type (ln ratio); higher = more splicing; Tetrahymena group I intron in knt gene, E. coli kanamycin selection, DiMSum; sequences stand for … in CUCUCU…GGAGGGAAAAGUUAUCAGGCAUGCACCUGGUAGCUAGUCUUUAAACCAAUAGAUUGCAUCGGUUUAAAAGGCAAGACCGUCAAAUUGCGGGAAAGGGGUCAACAGCCGUUCAGUACCAAGUCUCAGGGGAAACUUUGAGAUGGCCUUGCAAAGGGUAUGGUAAUAAGCUGACGGACAUGGUCCUAACCACGCAGCCAAGUCCUAAGUCAACAGAUCUUCUGUUGAUAUGGAUGCAGUUCACAGACUAAAUGUCGGUCGGGGAAGAUGUAUUCUUCUCAUAAGAUAUAGUCGGACCUCUCCUUAAUGGGAGCUAGCGGAUGAAGUGAUGCAACACUGGAGCCGCUGGGAACUAAUUUGUAUGCGAAAGUAUAUUGAUUAGUUUUGGAGUACUCGUGGUCG
Put shortly:
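The eight P1ex-region nucleotides of an intron in the knt kanamycin-resistance gene on pET-22b(+) were all randomised and the library put into E. coli BL21(DE3). Six replicate transformations were grown overnight at 37°C or 30°C on LB agar with or without 25 μg/mL kanamycin, together with 100 μg/mL carbenicillin, 50 μM IPTG and 0.2% rhamnose. Colonies were pooled and amplicon-sequenced on an Illumina HiSeq 2500. Fitness from DiMSum is the error-weighted combination of wild-type-normalised replicate fold changes, kanamycin over none.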

± gives the uncertainty stated by the source.

As to AGAGAGCAAUAUUACGUAGU, the “self-splicing fitness (ln)” value reads like this: (30 °C) -3.49 ± 0.3; (37 °C) -2.47 ± 0.26.

As for UCUCAGCAAUAUUACGCUGG, the “self-splicing fitness (ln)” value (30 °C) is -3.25 ± 0.2 and the “self-splicing fitness (ln)” value (37 °C) is -2.67 ± 0.2. The matching figures for UGAAAGCAAUAUUACGAGUA: -1.45 ± 0.1 and -0.821 ± 0.092.

Regarding GCCAAGCAAUAUUACGGUCU, the “self-splicing fitness (ln)” value (30 °C) is -2.26 ± 0.12 and the “self-splicing fitness (ln)” value (37 °C) is -0.79 ± 0.12. On the same counts, the results for GUCAAGCAAUAUUACGCGAG are -1.83 ± 0.11 and -1.36 ± 0.12. On the same counts, the results for UAGGAGCAAUAUUACGAAUG are -1.64 ± 0.4 and -0.141 ± 0.49.

As to AUCGAGCAAUAUUACGACGC, the “self-splicing fitness (ln)” value is, setting by setting: (30 °C) -1.28 ± 0.094; (37 °C) -0.674 ± 0.12. On to ACCCAGCAAUAUUACGGACU, for which the “self-splicing fitness (ln)” value reads like this: (30 °C) -0.261 ± 0.044; (37 °C) 0.0991 ± 0.059. Regarding AUCUAGCAAUAUUACGGAUG, the “self-splicing fitness (ln)” value is -2.12 ± 0.12 (30 °C) and 0.0806 ± 0.12 (37 °C). On the same counts, the results for UGGCAGCAAUAUUACGCUUG are -2.46 ± 0.12 and -0.728 ± 0.15. For the sequence UCUAAGCAAUAUUACGACCG, the “self-splicing fitness (ln)” value was -0.676 ± 0.14 (30 °C) and -0.00302 ± 0.22 (37 °C). Take AGUUAGCAAUAUUACGGGUU: the “self-splicing fitness (ln)” value is, setting by setting: (30 °C) -1.38 ± 0.11; (37 °C) -1.53 ± 0.15. On to ACGAAGCAAUAUUACGAGGC, for which the “self-splicing fitness (ln)” value is -3.62 ± 0.21 (30 °C) and -1.81 ± 0.16 (37 °C). On the same counts, the results for GGUUAGCAAUAUUACGACAG are -1.69 ± 0.2 and -0.85 ± 0.23. On to CCUUAGCAAUAUUACGCCAA, for which the “self-splicing fitness (ln)” value (30 °C) was -2.7 ± 0.34 and the “self-splicing fitness (ln)” value (37 °C) is -0.755 ± 0.31.

For the sequence AAACAGCAAUAUUACGCCCC, the “self-splicing fitness (ln)” value reads like this: (30 °C) -1.63 ± 0.15; (37 °C) -0.801 ± 0.19.

In the case of CUGCAGCAAUAUUACGGGAA, the “self-splicing fitness (ln)” value (30 °C) was -4.02 ± 0.29 and the “self-splicing fitness (ln)” value (37 °C) was -2.53 ± 0.17. Take UACCAGCAAUAUUACGUUGG: the “self-splicing fitness (ln)” value reads like this: (30 °C) -3.21 ± 0.12; (37 °C) -2.85 ± 0.14. Take GCUCAGCAAUAUUACGUUGG: the “self-splicing fitness (ln)” value is, setting by setting: (30 °C) -1.96 ± 0.17; (37 °C) -2.46 ± 0.19. On the same counts, the results for AAUUAGCAAUAUUACGUCGG are -2.72 ± 0.19 and -1.66 ± 0.21. Consider UGUAAGCAAUAUUACGCUAA, for which the “self-splicing fitness (ln)” value was -2.73 ± 0.21 (30 °C) and -0.75 ± 0.15 (37 °C). GCUGAGCAAUAUUACGACUG: the “self-splicing fitness (ln)” value is -2.16 ± 0.35 (30 °C) and -0.83 ± 0.38 (37 °C). UACUAGCAAUAUUACGUCUA: the “self-splicing fitness (ln)” value is, setting by setting: (30 °C) -0.655 ± 0.12; (37 °C) -0.565 ± 0.11. Take AGGGAGCAAUAUUACGUCUA: the “self-splicing fitness (ln)” value was -2.54 ± 0.21 (30 °C) and -2.26 ± 0.21 (37 °C).

GCAGAGCAAUAUUACGUUAC: the “self-splicing fitness (ln)” value by setting is: (30 °C) -2.97 ± 0.16; (37 °C) -1.38 ± 0.17. Turning to GGAAAGCAAUAUUACGGUUU, the “self-splicing fitness (ln)” value was -1.02 ± 0.061 (30 °C) and -0.46 ± 0.082 (37 °C). On the same counts, the results for UAGGAGCAAUAUUACGGGCG are -2.73 ± 0.19 and -2.58 ± 0.23. Regarding GUAAAGCAAUAUUACGAGAC, the “self-splicing fitness (ln)” value is -2.46 ± 0.22 (30 °C) and -1.08 ± 0.29 (37 °C). The matching figures for GGUUAGCAAUAUUACGCUGU: -2.1 ± 0.15 and -0.41 ± 0.14. As to UACAAGCAAUAUUACGACUU, the “self-splicing fitness (ln)” value is -1.19 ± 0.081 (30 °C) and -0.692 ± 0.097 (37 °C). Turning to UUGAAGCAAUAUUACGAAUC, the “self-splicing fitness (ln)” value is -3.58 ± 0.37 (30 °C) and -2.12 ± 0.32 (37 °C). Regarding CAAUAGCAAUAUUACGAGCG, the “self-splicing fitness (ln)” value is -0.254 ± 0.077 (30 °C) and 0.281 ± 0.098 (37 °C). On the same counts, the results for CUGAAGCAAUAUUACGGAAA are -3.46 ± 0.26 and -1.43 ± 0.31. The matching figures for UAACAGCAAUAUUACGGACU: -1.02 ± 0.064 and -0.504 ± 0.089. As to AGCAAGCAAUAUUACGACGU, the “self-splicing fitness (ln)” value is, setting by setting: (30 °C) -0.267 ± 0.075; (37 °C) 0.91 ± 0.093. CGUUAGCAAUAUUACGUGCG: the “self-splicing fitness (ln)” value is -3.7 ± 0.14 (30 °C) and -2.71 ± 0.15 (37 °C). On the same counts, the results for GCUUAGCAAUAUUACGAUCG are -1.19 ± 0.1 and -0.254 ± 0.12. Take AUCAAGCAAUAUUACGGUCA: the “self-splicing fitness (ln)” value (30 °C) is -1.76 ± 0.14 and the “self-splicing fitness (ln)” value (37 °C) is -1.28 ± 0.13. The matching figures for GACCAGCAAUAUUACGUAAA: 0.0993 ± 0.067 and -0.108 ± 0.094. The matching figures for AUUAAGCAAUAUUACGGGAA: -2.09 ± 0.26 and -1.43 ± 0.23. The matching figures for UUGCAGCAAUAUUACGCGUU: -2.41 ± 0.21 and -1.94 ± 0.18. For the sequence UUCCAGCAAUAUUACGAGAA, the “self-splicing fitness (ln)” value reads like this: (30 °C) -1.79 ± 0.17; (37 °C) -0.442 ± 0.16. On to UUCUAGCAAUAUUACGGAAA, for which the “self-splicing fitness (ln)” value (37 °C) is -1.4 ± 0.45.

In the case of UUGAAGCAAUAUUACGGAUA, the “self-splicing fitness (ln)” value is -0.345 ± 0.08 (30 °C) and -0.413 ± 0.1 (37 °C). The matching figures for GAAAAGCAAUAUUACGAAAU: -1.74 ± 0.14 and -1.09 ± 0.16.

As for CCCUAGCAAUAUUACGCCAG, the “self-splicing fitness (ln)” value (30 °C) was -3.87 ± 0.32 and the “self-splicing fitness (ln)” value (37 °C) was -3.21 ± 0.37. As for GAAUAGCAAUAUUACGCUUC, the “self-splicing fitness (ln)” value (37 °C) was -1.83 ± 0.44. On to UUGUAGCAAUAUUACGAAAU, for which the “self-splicing fitness (ln)” value reads like this: (30 °C) -3.24 ± 0.46; (37 °C) -2.15 ± 0.4. On the same counts, the results for UAUUAGCAAUAUUACGCGCA are -0.12 ± 0.13 and 0.163 ± 0.18. On the same counts, the results for GGACAGCAAUAUUACGAGCA are -0.424 ± 0.47 and -0.637 ± 0.4.

Take CAUCAGCAAUAUUACGCCCG: the “self-splicing fitness (ln)” value is -0.306 ± 0.12 (30 °C) and 0.0609 ± 0.15 (37 °C). With CCUAAGCAAUAUUACGAAUG, the “self-splicing fitness (ln)” value (30 °C) was -1.63 ± 0.14 and the “self-splicing fitness (ln)” value (37 °C) is -2.23 ± 0.16. For the sequence GCAGAGCAAUAUUACGGUAC, the “self-splicing fitness (ln)” value is -2.65 ± 0.22 (30 °C) and -1.79 ± 0.45 (37 °C). The matching figures for AGUUAGCAAUAUUACGUCGU: -2.35 ± 0.14 and -1.05 ± 0.14. For the sequence CUCUAGCAAUAUUACGUGGA, the “self-splicing fitness (ln)” value was -3.43 ± 0.25 (30 °C) and -2.17 ± 0.19 (37 °C). Take UGGCAGCAAUAUUACGAAAC: for the setting “37 °C”, the “self-splicing fitness (ln)” value is -1.52 ± 0.32. Take GUGUAGCAAUAUUACGGCUG: the “self-splicing fitness (ln)” value runs as follows: (30 °C) -3.23 ± 0.23; (37 °C) -1.28 ± 0.25.

Turning to CCGUAGCAAUAUUACGUUCA, the “self-splicing fitness (ln)” value (30 °C) was -1.34 ± 0.2 and the “self-splicing fitness (ln)” value (37 °C) is -1.91 ± 0.25. For the sequence CCCUAGCAAUAUUACGCUUG, the “self-splicing fitness (ln)” value runs as follows: (30 °C) -3.94 ± 0.42; (37 °C) -2.18 ± 0.28. The matching figures for GGCCAGCAAUAUUACGGUGG: -2.52 ± 0.14 and -1.85 ± 0.14. As to GCCGAGCAAUAUUACGAGAA, the “self-splicing fitness (ln)” value (30 °C) is -2.99 ± 0.19 and the “self-splicing fitness (ln)” value (37 °C) was -0.755 ± 0.12.

As to UUAAAGCAAUAUUACGAACG, the “self-splicing fitness (ln)” value runs as follows: (30 °C) 0.275 ± 0.12; (37 °C) 0.794 ± 0.16. For the sequence GUGAAGCAAUAUUACGUUCG, the “self-splicing fitness (ln)” value by setting is: (30 °C) -0.236 ± 0.095; (37 °C) -0.797 ± 0.1. In the case of AACCAGCAAUAUUACGAGUG, the “self-splicing fitness (ln)” value reads like this: (30 °C) -0.0963 ± 0.045; (37 °C) -0.0773 ± 0.06.

Consider CCUCAGCAAUAUUACGGCGA, for which the “self-splicing fitness (ln)” value was -3.72 ± 0.31 (30 °C) and -2.79 ± 0.22 (37 °C). The matching figures for CCUUAGCAAUAUUACGUAAC: -4.41 ± 0.22 and -2.41 ± 0.18. As to CAGGAGCAAUAUUACGGAAC, for the setting “30 °C”, the “self-splicing fitness (ln)” value is -3.67 ± 0.43. As for AGCGAGCAAUAUUACGGUAU, the “self-splicing fitness (ln)” value (30 °C) is -3.18 ± 0.16 and the “self-splicing fitness (ln)” value (37 °C) was -2.54 ± 0.22. Regarding UCUAAGCAAUAUUACGGGCA, the “self-splicing fitness (ln)” value reads like this: (30 °C) -1.42 ± 0.12; (37 °C) -0.441 ± 0.12. On to CCAGAGCAAUAUUACGGUAC, for which the “self-splicing fitness (ln)” value runs as follows: (30 °C) -3.29 ± 0.17; (37 °C) -1.52 ± 0.26.

Turning to AAAAAGCAAUAUUACGGCGU, the “self-splicing fitness (ln)” value (30 °C) is -0.321 ± 0.078 and the “self-splicing fitness (ln)” value (37 °C) came to 0.208 ± 0.098. As for AGACAGCAAUAUUACGUGUA, the “self-splicing fitness (ln)” value (30 °C) was -1.89 ± 0.078 and the “self-splicing fitness (ln)” value (37 °C) is -1.61 ± 0.069. On the same counts, the results for CCGUAGCAAUAUUACGGUUU are -2.85 ± 0.16 and -3.05 ± 0.27. On the same counts, the results for GUCCAGCAAUAUUACGUGCG are -1.15 ± 0.085 and -1.14 ± 0.12. On to GCCAAGCAAUAUUACGUAGA, for which the “self-splicing fitness (ln)” value is -1.98 ± 0.064 (30 °C) and -1.26 ± 0.077 (37 °C).

On to GCAGAGCAAUAUUACGUGGU, for which the “self-splicing fitness (ln)” value by setting is: (30 °C) -3.94 ± 0.17; (37 °C) -2.27 ± 0.18.
